Our source for the REVEAL Score values is patent US20200121775A1.

The target in the assay is HLA A02:01 class I molecule with β2-microglobulin (human). The assay is described as follows: REVEAL MHC class I binding/stabilization assay (ProImmune).

In turn, positive control peptide (REVEAL assay) returned an REVEAL Score of 100 score.
